Test results taken from PMC11779849.

Tests used:
[1] = molecular target: human P-cadherin K14E mutant ectodomain (EC1-5) (human); assay: single-molecule AFM force spectroscopy; biotinylated Pcad EC1-5 held by streptavidin on PEG tethers on both the cantilever and the glass substrate; no CQY684 (-CQY); tip retracted at 1 µm/s; Tris buffer pH 7.5, 10 mM Tris-HCl, 100 mM NaCl, 10 mM KCl, 2.5 mM CaCl2; peak forces from Gaussian fits of unbinding force histograms
[2] = molecular target: human P-cadherin K14E mutant ectodomain (EC1-5) (human); assay: single-molecule AFM force spectroscopy; as the -CQY experiment but with 40 nM CQY684 Fab in the buffer (+CQY); Pcad EC1-5 on cantilever and substrate; 1 µm/s; Tris buffer pH 7.5 with 2.5 mM CaCl2
[3] = molecular target: human P-cadherin W2A mutant ectodomain (EC1-5) (human); assay: single-molecule AFM force spectroscopy; biotinylated Pcad EC1-5 held by streptavidin on PEG tethers on both the cantilever and the glass substrate; no CQY684 (-CQY); tip retracted at 1 µm/s; Tris buffer pH 7.5, 10 mM Tris-HCl, 100 mM NaCl, 10 mM KCl, 2.5 mM CaCl2; peak forces from Gaussian fits of unbinding force histograms
[4] = molecular target: human P-cadherin W2A mutant ectodomain (EC1-5) (human); assay: single-molecule AFM force spectroscopy; as the -CQY experiment but with 40 nM CQY684 Fab in the buffer (+CQY); Pcad EC1-5 on cantilever and substrate; 1 µm/s; Tris buffer pH 7.5 with 2.5 mM CaCl2

Row | Substance | peak unbinding force [1] | peak unbinding force (with 40 nM CQY684) [2] | peak unbinding force [3] | peak unbinding force, first Gaussian (with 40 nM CQY684) [4] | peak unbinding force, second Gaussian (with 40 nM CQY684) [4]
1 | human P-cadherin K14E mutant ectodomain (EC1-5) (domain or fragment) | 33.1 pN | 31 pN | – | – | –
2 | human P-cadherin W2A mutant ectodomain (EC1-5) (domain or fragment) | – | – | 24.5 pN | 35.1 pN | 55.8 pN
